The target in the assay is Ad5 hexon with DogTag inserted at HVR5, on Ad-DogTag virions (human adenovirus 5 (Ad5)) (UniProt P04133). Briefly: SDS-PAGE gel shift. (In general: Mobility shift assays separate free from complexed probe on a gel.)

In the case of “DogCatcher fused to SARS-CoV-2 spike receptor-binding domain (DogCatcher-RBD) (from UniProt P0DTC2 319-532) (designed binder)”, the percent of hexon covalently coupled (% of hexon monomers) amounted to 57.

These data come from paper PMC9364715.
